According to PMC10866649 (2024):

B1: Mouse neonatal Fc receptor (mFcRn) (receptor)
chain 1: SETRPPLMYHLTAVSNPSTGLPSFWATGWLGPQQYLTYNSLRQEADPCGAWMWENQVSWYWEKETTDLKSKEQLFLEALKTLEKILNGTYTLQGLLGCELASDNSSVPTAVFALNGEEFMKFNPRIGNWTGEWPETEIVANLWMKQPDAARKESEFLLNSCPERLLGHLERGRRNLEWKEPPSMRLKARPGNSGSSVLTCAAFSFYPPELKFRFLRNGLASGSGNCSTGPNGDGSFHAWSLLEVKRGDEHHYQCQVEHEGLAQPLTVDLDSSARSS
chain 2: IQKTPQIQVYSRHPPENGKPNILNCYVTQFHPPHIEIQMLKNGKKIPKVEMSDMSFSKDWSFYILAHTEFTPTETDTYACRVKHASMAEPKTVYWDRDM

How the values were obtained:
[1] = target: Wild-type human IgG1 Fc (Fc^WT) (human, N-linked glycan at N297, predominantly fucosylated agalactosylated or monogalactosylated); assay: SPR
[2] = target: B1; assay: SPR

Binder | Kd [1] [nM] | Kd [2] [nM]
B1 | 70 | –
Human IgG1 Fc bearing the Abdeg mutations (Fc^Abdeg, efgartigimod) (domain or fragment) DKTHTCPPCPAPELLGGPSVFLFPPKPKDTLYITREPEVTCVVVDVSHEDPEVKFNWYVDGVEVHNAKTKPREEQYNSTYRVVSVLTVLHQDWLNGKEYKCKVSNKALPAPIEKTISKAKGQPREPQVYTLPPSRDELTKNQVSLTCLVKGFYPSDIAVEWESNGQPENNYKTTPPVLDSDGSFFLYSKLTVDKSRWQQGNVFSCSVMHEALKFHYTQKSLSLSPGK | – | 0.27
